Tested on: VEGF promoter
Test: VEGF promoter luciferase reporter in B16 and SCK tumor cells
Format: cell-based
Conditions: B16 and SCK murine tumor cells, co-transfection
Description: FIG. 12A-B. Blocking Stat3 signaling in tumor cells inhibits VEGF promoter activity. Both B16 (A) and SCK (B) murine tumor cells were transfected with constructs containing the luciferase cDNA in the absence (pluc) or presence of the VEGF promoter (VEGF).
A plasmid construct containing the luciferase cDNA in the absence of the VEGF promoter was also transfected into 3T3 fibroblasts. Both of B16 and SCK tumor cells harbor constitutively activated Stat3. In the absence of Stat3β, VEGF promoter activity was readily detectable in both tumor cells as indicated by the high expression levels of luciferase protein. […] The inhibitory effect of Stat3β on the transcriptional activity of the VEGF promoter was also observed in the tumor cells transfected with Stat3 anti-sense oligonucleotides (FIG. 12A-B). It was also shown that blocking Stat3 signaling in tumor cells inhibits the expression of the endogeneous VEGF gene. B16 tumor cells were transiently transfected with Stat3β and the expression of endogeneous VEGF gene was determined at the RNA and protein levels.

B1: Stat3β: dominant-negative Stat3 variant, truncated form lacking the transactivation domain; delivered by the pIRES-Stat3β expression vector (protein)
chain: AQWNQLQQLDTRYLEQLHQLYSDSFPMELRQFLAPWIESQDWAYAASKESHATLVFHNLLGEIDQQYSRFLQESNVLYQHNLRRIKQFLQSRYLEKPMEIARIVARCLWEESRLLQTAATAAQQGGQANHPTAAVVTEKQQMLEQHLQDVRKRVQDLEQKMKVVENLQDDFDFNYKTLKSQGDMQDLNGNNQSVTRQKMQQLEQMLTALDQMRRSIVSELAGLLSAMEYVQKTLTDEELADWKRRQQIACIGGPPNICLDRLENWITSLAESQLQTRQQIKKLEELQQKVSYKGDPIVQHRPMLEERIVELFRNLMKSAFVVERQPCMPMHPDRPLVIKTGVQFTTKVRLLVKFPELNYQLKIKVCIDKDSGDVAALRGSRKFNILGTNTKVMNMEESNNGSLSAEFKHLTLREQRCGNGGRANCDASLIVTEELHLITFETEVYHQGLKIDLETHSLPVVVISNICQMPNAWASILWYNMLTNNPKNVNFFTKPPIGTWDQVAEVLSWQFSSTTKRGLSIEQLTTLAEKLLGPGVNYSGCQITWAKFCKENMAGKGFSFWVWLDNIIDLVKKYILALWNEGYIMGFISKERERAILSTKPPGTFLLRFSESSKEGGVTFTWVEKDISGKTQIQSVEPYTKQQLNNMSFAEIIMGYKIMDATNILVSPLVYLYPDIPKEEAFGKYCRPESQEHPEADPGAAPYLKTKFICVTFIDAVWK
With B1 the “transcriptional activity of the VEGF promoter (luciferase)” value was “greatly inhibited”.

Reference: patent US20090227489A1, “STAT3 Agonists and Antagonists and Therapeutic Uses Thereof” (Johns Hopkins University, priority 2000, published 2009)
